Experimental data taken from patent US9758792B2, “Glyphosate resistant class 1 EPSPS genes” (SYNGENTA PARTICIPATIONS AG, priority 2013, dated 2017).

What was measured:
[1] = target: native EPSPS from E. coli (Escherichia coli, UniProt P0A6D3); settings: read-out: apparent Km for PEP; cited from earlier work
[2] = system: T0 transgenic tobacco plants; experiment: Spray with glyphosate (Touchdown) on ZmEPSPS mutant containing tobacco; assay type: in vivo; settings: for tolerance to Touchdown spray: 2× and 4× field rates; for tolerance to Touchdown spray / herbicide damage: 2 weeks post treatment; for herbicide damage: 4× field rates as printed in the text; for Damage: assessed 2 weeks post treatment
Description: T0 transgenic tobacco plants were grown on soil for 4 weeks in Conviron growth chambers. These plants were sprayed with 2×, 4× and 8× Touchdown herbicide at 2×, 4× and 8× field rate (1× field rate=1680 g AE/Ha), respectively, and the herbicide damage was assessed 2 weeks post treatment. […]

tobacco leaf discs = experiment: Screening maize mutants using tobacco regeneration system on glyphosate medium; assay type: cell-based; settings: regeneration medium containing 50 nM glyphosate and 200 mg/L Timentin
Description: The efficacy of maize mutant genes (Table 2) were tested using a tobacco leaf discs transformation/regeneration system. […] Additionally, a third mutant comprising the mutations of mutant #8 and #13 is possible resulting in an […] mutant.

[3] = Touchdown 2X field rate (1X = 1680 g AE/Ha)
[4] = Touchdown 4X field rate (1X = 1680 g AE/Ha)
[5] = Touchdown 8X field rate (1X = 1680 g AE/Ha)

Sequence of native EPSPS from E. coli (P0A6D3 whole entry): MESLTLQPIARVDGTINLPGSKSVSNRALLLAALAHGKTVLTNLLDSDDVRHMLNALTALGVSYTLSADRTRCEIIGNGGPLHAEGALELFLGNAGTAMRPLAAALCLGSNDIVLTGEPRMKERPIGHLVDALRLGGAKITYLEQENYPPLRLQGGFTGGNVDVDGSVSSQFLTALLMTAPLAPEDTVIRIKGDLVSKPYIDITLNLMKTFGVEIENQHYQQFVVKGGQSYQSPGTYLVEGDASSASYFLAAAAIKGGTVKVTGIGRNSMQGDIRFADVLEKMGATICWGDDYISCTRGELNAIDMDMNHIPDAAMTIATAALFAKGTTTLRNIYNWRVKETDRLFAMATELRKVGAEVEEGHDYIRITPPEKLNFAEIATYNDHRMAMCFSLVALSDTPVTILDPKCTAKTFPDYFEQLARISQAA

Molecule | Km [1] | tolerance to Touchdown spray [2] | herbicide damage [2] | Damage [2, 3] | Damage [2, 4] | Damage [2, 5] | ability to regenerate on glyphosate media (tobacco leaf discs)
C=C(OP(=O)(O)O)C(=O)O [PEP, phosphoenolpyruvic acid] | 10 µM | – | – | – | – | – | –
ZmEPSPS-20: maize EPSPS mutant gene/protein, A68D and T102I; contains Table 2 mutant #13; SEQ ID NO. 6 (protein, Mutated zea mays; (68)..(68) X = D or E) AGAEEIVLQPIKEISGTVKLPGSKSLSNRILLLAALSEGTTVVDNLLNSEDVHYMLGALRTLGLSVEXDKAAKRAVVVGCGGKFPVEDAKEEVQLFLGNAGIAMRPLTAAVTAAGGNATYVLDGVPRMRERPIGDLVVGLKQLGADVDCFLGTDCPPVRVNGIGGLPGGKVKLSGSISSQYLSALLMAAPLALGDVEIEIIDKLISIPYVEMTLRLMERFGVKAEHSDSWDRFYIKGGQKYKSPKNAYVEGDASSASYFLAGAAITGGTVTVEGCGTTSLQGDVKFAEVLEMMGAKVTWTETSVTVTGPPREPFGRKHLKAIDVNMNKMPDVAMTLAVVALFADGPTAIRDVASWRVKETERMVAIRTELTKLGASVEEGPDYCIITPPEKLNVTAIDTYDDHRMAMAFSLAACAEVPVTIRDPGCTRKTFPDYFDVLSTFVKN | – | completely tolerant | only minor damage | No damage | No damage | Minor damage at shoot apex | tolerant mutants
ZmEPSPS-27: maize EPSPS mutant gene/protein, A68E and G101C; contains Table 2 mutant #8; SEQ ID NO. 7 (protein, Mutated zea mays; (68)..(68) X = D or E) AGAEEIVLQPIKEISGTVKLPGSKSLSNRILLLAALSEGTTVVDNLLNSEDVHYMLGALRTLGLSVEXDKAAKRAVVVGCGGKFPVEDAKEEVQLFLGNACTAMRPLTAAVTAAGGNATYVLDGVPRMRERPIGDLVVGLKQLGADVDCFLGTDCPPVRVNGIGGLPGGKVKLSGSISSQYLSALLMAAPLALGDVEIEIIDKLISIPYVEMTLRLMERFGVKAEHSDSWDRFYIKGGQKYKSPKNAYVEGDASSASYFLAGAAITGGTVTVEGCGTTSLQGDVKFAEVLEMMGAKVTWTETSVTVTGPPREPFGRKHLKAIDVNMNKMPDVAMTLAVVALFADGPTAIRDVASWRVKETERMVAIRTELTKLGASVEEGPDYCIITPPEKLNVTAIDTYDDHRMAMAFSLAACAEVPVTIRDPGCTRKTFPDYFDVLSTFVKN | – | completely tolerant | only minor damage | No damage | No damage | Minor damage, some | tolerant mutants
